The EC50 is the concentration that produces a half-maximal response.

The target of experiment [1] is human PD-L1 on CHO-K1 cells overexpressing human PD-L1 (human) (UniProt Q9NZQ7). Description: flow cytometry on CHO-K1 cells overexpressing human PD-L1 (CHO-K1/hPD-L1); isotype control [continued) D]. A general note: In flow cytometry, cells or beads pass a laser one at a time.
For experiment [2] the target is unchanged. Description: flow cytometry on CHO-K1 cells overexpressing human PD-L1 (CHO-K1/hPD-L1); isotype control, EC50 given as N.A.
The target in experiment [3] is cynomolgus monkey PD-L1 on CHO-K1 cells overexpressing cynomolgus monkey PD-L1 (cynomolgus monkey) (UniProt G7PSE7). Description: flow cytometry on CHO-K1 cells overexpressing cynomolgus monkey PD-L1 (CHO-K1/cynoPD-L1); isotype control, EC50 given as N.A.
Sequence of cynomolgus monkey PD-L1 on CHO-K1 cells overexpressing cynomolgus monkey PD-L1 (cynomolgus monkey) (G7PSE7 entry or part of it limits assumed): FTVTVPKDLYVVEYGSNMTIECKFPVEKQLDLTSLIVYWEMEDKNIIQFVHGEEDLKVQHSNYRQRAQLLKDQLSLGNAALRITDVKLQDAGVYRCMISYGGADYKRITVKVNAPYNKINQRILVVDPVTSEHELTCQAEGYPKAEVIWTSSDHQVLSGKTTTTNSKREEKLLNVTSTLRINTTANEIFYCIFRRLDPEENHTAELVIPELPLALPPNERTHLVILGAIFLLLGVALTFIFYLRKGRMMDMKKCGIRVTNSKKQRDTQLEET
For experiment [4] the target is unchanged. The description is as above. This is another data set of the same source.
The target is the same in experiment [5]. The description is as above. The source holds these as a separate data set.
The target of experiment [6] is human PD-L1 on CHO-K1 cells overexpressing human PD-L1 (human) (UniProt Q9NZQ7). Description: flow cytometry on CHO-K1 cells overexpressing human PD-L1 (CHO-K1/hPD-L1); isotype control, fit value printed for a curve that stays at the baseline [continued) D].

Read-outs that look alike come from different tables or passages of the source.

Sequence of human PD-L1 on CHO-K1 cells overexpressing human PD-L1 (human) (Q9NZQ7 19-290): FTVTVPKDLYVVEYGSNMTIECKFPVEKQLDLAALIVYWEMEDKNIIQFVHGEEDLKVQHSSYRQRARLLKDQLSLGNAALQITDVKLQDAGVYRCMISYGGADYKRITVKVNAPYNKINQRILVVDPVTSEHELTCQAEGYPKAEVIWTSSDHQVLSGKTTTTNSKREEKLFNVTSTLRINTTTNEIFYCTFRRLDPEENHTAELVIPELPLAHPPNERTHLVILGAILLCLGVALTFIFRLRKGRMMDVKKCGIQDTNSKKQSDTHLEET

In the case of hIgG1 (antibody), the Maximum MFI in experiment [1] came to 595 MFI; in experiment [2], 86 MFI; in experiment [3] it was 123 MFI; in experiment [4] it was 112 MFI; in experiment [5], 125 MFI. Moreover, in experiment [6], the EC50 was found to be 75.9 nM.

The values are drawn from patent publication US20240269276A1.
